Patent publication US20250154272A1 (Astellas, published 2025)
Where two headings read alike, the source gives them in different places.

Columns and labels:
[1] = target: T1, human CD137-human Fc fusion protein (human, UniProt Q07011 24-186); assay: ELISA of the purified antibody on coated plates
T1 construct: not shown: human IgG1 Fc of the pFUSE-hIgG1-Fc1 vector (InvivoGen, pfuse-hg1fc1)

[2] = target: T2, monkey CD137-human Fc fusion protein (monkey; human, UniProt Q07011 24-186); assay: ELISA of the purified antibody on coated plates
T2 construct: not shown: human IgG1 Fc of the pFUSE-hIgG1-Fc1 vector (InvivoGen, pfuse-hg1fc1)
T2 chain: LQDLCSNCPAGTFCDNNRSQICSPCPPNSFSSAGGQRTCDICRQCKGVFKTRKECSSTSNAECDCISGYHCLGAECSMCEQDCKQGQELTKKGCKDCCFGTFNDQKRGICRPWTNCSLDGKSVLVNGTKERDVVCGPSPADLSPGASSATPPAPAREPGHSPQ

[3] = target: T3, human CD137-His tag protein (R&D Systems, 9220-4B) (human, UniProt Q07011 24-186); assay: ELISA, human CD137-His tag protein immobilized on the plate, anti-human IgG Fc-HRP, A450-A570
T3 construct: Bought protein; not shown: His tag of the bought protein

[4] = target: T3, human CD137-His tag protein (R&D …); assay: as above; remark: listed apart in the source

B1: anti-CD137 antibody A2-73 (antibody, V domains shown)
VH: QVQLQESGPGLVKPSETLSLTCTVSGGSISSYYWTWIRQPPGKGLELVGYIYYSGYTSYNPSLKSRVTISIDTSKNQFSLQLNSVTAADTAVYFCARDDYGGNGYYGVDVWGQGTTVTVSS
VL: not shown
notes: Purified from a hybridoma derived from an AlivaMab mouse
B1: binds [1]; binds [2].

B2: anti-CLDN4 (hKM3900)/anti-CD137 scFv bispecific antibody hKM3900_tA2-32LH_S (bispecific antibody)
heavy (part 1 of 2): EVQLVQSGAEVKKPGASVKISCKASGYTFTDYYMNWVRQAPGQGLEWMGDVVPNNGVPTYNQKFKGRVTITADKSTSTAYMELRSLRSEDTAVYYCARPHYYYAGRSGAMDYWGQGTLVTVSS
heavy (part 2 of 2): QSVLTQPPSASGTPGQRVTISCSGSSSNIGSNTVNWYQQFPGTAPKLLIYSNNQRPSGVPDRFSGSKSGTSASLAISGLQSEDEADYYCAGWDDSLNGPVFGGGTKLTVLGGGGGSGGGGSGGGGSGGGGSQVQLQESGPGLVKPSETLSLTCTVSGGSISGYYWSWIRQPPGKGLEWIGYIYYSGFTNYNPSLKSRVTISVDTSKNQFSLKLSSVTAADTAVYYCTRDHSHYYYMDVWGQGTTVTVSS
light: DIQLTQSPSSLSASVGDRVTITCTASSTVSSTYLHWYQQKPGKAPKLLIYSTSNLASGVPSRFSGSGSGTDYTLTISSLQPEDFATYYCHQYHRSPPTFGQGTKLEIKRTVAAPSVFIFPPSDEQLKSGTASVVCLLNNFYPREAKVQWKVDNALQSGNSQESVTEQDSKDSTYSLSSTLTLSKADYEKHKVYACEVTHQGLSSPVTKSFNRGEC
notes: scFv at the heavy chain C-terminus; not shown: human IgG1 heavy chain constant region; mutation positions by EU index; GS linker
In the case of B2, the “EC50 (read off the curve)” value [3] is reported as ~10 ng/mL.

B3: anti-CLDN4 (hKM3900)/anti-CD137 scFv bispecific antibody hKM3900_3-34-j6_S (bispecific antibody)
heavy (part 1 of 2): EVQLVQSGAEVKKPGASVKISCKASGYTFTDYYMNWVRQAPGQGLEWMGDVVPNNGVPTYNQKFKGRVTITADKSTSTAYMELRSLRSEDTAVYYCARPHYYYAGRSGAMDYWGQGTLVTVSS
heavy (part 2 of 2): EVQLLESGGGLVQPGESLRLSCKAFGYTFTNHHINWVRQAPGKCLEWVGYINPYNDYTTFNDKFKDRFTLSVDKSKSTAYLQMNSLRAEDTAVYYCARTWGHWYFDLWGQGTLVTVSSGGGGSGGGGSGGGGSNIQMTQSPSSLSASVGDRVTITCRASQSVSSNLAWYQQKPGKAPKLLIYDSSTRATGVPSRFSGSGSGTDFTLTISSLQPEDFATYYCQQYNNWPPWTFGCGTKLEIKR
light: DIQLTQSPSSLSASVGDRVTITCTASSTVSSTYLHWYQQKPGKAPKLLIYSTSNLASGVPSRFSGSGSGTDYTLTISSLQPEDFATYYCHQYHRSPPTFGQGTKLEIKRTVAAPSVFIFPPSDEQLKSGTASVVCLLNNFYPREAKVQWKVDNALQSGNSQESVTEQDSKDSTYSLSSTLTLSKADYEKHKVYACEVTHQGLSSPVTKSFNRGEC
notes: scFv at the heavy chain C-terminus; Fc mutation P331S with L234A and L235A; not shown: human IgG1 heavy chain constant region; mutation positions by EU index; GS linker
With B3 the “EC50 (read off the curve)” value [3] was ~10 ng/mL.

B4: anti-CLDN4 (hKM3900)/anti-CD137 scFv bispecific antibody hKM3900_tA2-73_S (bispecific antibody)
heavy (part 1 of 2): EVQLVQSGAEVKKPGASVKISCKASGYTFTDYYMNWVRQAPGQGLEWMGDVVPNNGVPTYNQKFKGRVTITADKSTSTAYMELRSLRSEDTAVYYCARPHYYYAGRSGAMDYWGQGTLVTVSS
heavy (part 2 of 2): QVQLQESGPGLVKPSETLSLTCTVSGGSISSYYWTWIRQPPGKCLELVGYIYYSGYTSYNPSLKSRVTISIDTSKNQFSLQLNSVTAADTAVYFCARDDYGGNGYYGVDVWGQGTTVTVSSGGGGSGGGGSGGGGSQSVLTQPPSASGTPGQRVTISCSGSSSNIGNNPVNWYRQLPGTAPKLLIYSNNQRPSGVPDRFSGSKSGTSASLAISGLQSEDEADYYCAAWDDSLNGWVFGCGTKLTVLG
light: DIQLTQSPSSLSASVGDRVTITCTASSTVSSTYLHWYQQKPGKAPKLLIYSTSNLASGVPSRFSGSGSGTDYTLTISSLQPEDFATYYCHQYHRSPPTFGQGTKLEIKRTVAAPSVFIFPPSDEQLKSGTASVVCLLNNFYPREAKVQWKVDNALQSGNSQESVTEQDSKDSTYSLSSTLTLSKADYEKHKVYACEVTHQGLSSPVTKSFNRGEC
notes: as for B2
For B4, the “EC50 (read off the curve)” value [3] was ~10 ng/mL.

B5: anti-CLDN4 (hKM3900)/anti-CD137 scFv bispecific antibody hKM3900_tA2-73 (bispecific antibody)
heavy (part 1 of 2): EVQLVQSGAEVKKPGASVKISCKASGYTFTDYYMNWVRQAPGQGLEWMGDVVPNNGVPTYNQKFKGRVTITADKSTSTAYMELRSLRSEDTAVYYCARPHYYYAGRSGAMDYWGQGTLVTVSS
heavy (part 2 of 2): QVQLQESGPGLVKPSETLSLTCTVSGGSISSYYWTWIRQPPGKCLELVGYIYYSGYTSYNPSLKSRVTISIDTSKNQFSLQLNSVTAADTAVYFCARDDYGGNGYYGVDVWGQGTTVTVSSGGGGSGGGGSGGGGSQSVLTQPPSASGTPGQRVTISCSGSSSNIGNNPVNWYRQLPGTAPKLLIYSNNQRPSGVPDRFSGSKSGTSASLAISGLQSEDEADYYCAAWDDSLNGWVFGCGTKLTVLG
light: DIQLTQSPSSLSASVGDRVTITCTASSTVSSTYLHWYQQKPGKAPKLLIYSTSNLASGVPSRFSGSGSGTDYTLTISSLQPEDFATYYCHQYHRSPPTFGQGTKLEIKRTVAAPSVFIFPPSDEQLKSGTASVVCLLNNFYPREAKVQWKVDNALQSGNSQESVTEQDSKDSTYSLSSTLTLSKADYEKHKVYACEVTHQGLSSPVTKSFNRGEC
notes: as for B2
For B5, the “EC50 (read off the curve)” value [4] was ~10 ng/mL.

B6: anti-CLDN4 (hKM3900)/anti-CD137 scFv bispecific antibody hKM3900_tA2-48_S (bispecific antibody)
heavy (part 1 of 2): EVQLVQSGAEVKKPGASVKISCKASGYTFTDYYMNWVRQAPGQGLEWMGDVVPNNGVPTYNQKFKGRVTITADKSTSTAYMELRSLRSEDTAVYYCARPHYYYAGRSGAMDYWGQGTLVTVSS
heavy (part 2 of 2): QVQLQESGPGLVKPSETLSLTCTVSGGSISSYYWSWIRQPPGKCLEWIGYIYYSGYTNYNPSLKSRVNISVDTSQNQFSLKLNSLTAADTAVYYCARTHSYYYGMDVWGQGTTVTVSSGGGGSGGGGSGGGGSQSVLTQPPSASGTPGQRVTISCSGSSSNIGNNPVNWYQQFPGTAPKLLIYSNNQRPSGVPDRFSGSKSGTSASLAISGLQSEDEADYYCEAWDDSLNGPVFGCGTKLTVLG
light: DIQLTQSPSSLSASVGDRVTITCTASSTVSSTYLHWYQQKPGKAPKLLIYSTSNLASGVPSRFSGSGSGTDYTLTISSLQPEDFATYYCHQYHRSPPTFGQGTKLEIKRTVAAPSVFIFPPSDEQLKSGTASVVCLLNNFYPREAKVQWKVDNALQSGNSQESVTEQDSKDSTYSLSSTLTLSKADYEKHKVYACEVTHQGLSSPVTKSFNRGEC
notes: as for B2
For B6, the “EC50 (read off the curve)” value [3] was ~10 ng/mL.

B7: anti-CLDN4 (hKM3900)/anti-CD137 scFv bispecific antibody hKM3900_tA2-32 (bispecific antibody)
heavy (part 1 of 2): EVQLVQSGAEVKKPGASVKISCKASGYTFTDYYMNWVRQAPGQGLEWMGDVVPNNGVPTYNQKFKGRVTITADKSTSTAYMELRSLRSEDTAVYYCARPHYYYAGRSGAMDYWGQGTLVTVSS
heavy (part 2 of 2): QVQLQESGPGLVKPSETLSLTCTVSGGSISGYYWSWIRQPPGKCLEWIGYIYYSGFTNYNPSLKSRVTISVDTSKNQFSLKLSSVTAADTAVYYCTRDHSHYYYMDVWGQGTTVTVSSGGGGSGGGGSGGGGSQSVLTQPPSASGTPGQRVTISCSGSSSNIGSNTVNWYQQFPGTAPKLLIYSNNQRPSGVPDRFSGSKSGTSASLAISGLQSEDEADYYCAGWDDSLNGPVFGCGTKLTVLG
light: DIQLTQSPSSLSASVGDRVTITCTASSTVSSTYLHWYQQKPGKAPKLLIYSTSNLASGVPSRFSGSGSGTDYTLTISSLQPEDFATYYCHQYHRSPPTFGQGTKLEIKRTVAAPSVFIFPPSDEQLKSGTASVVCLLNNFYPREAKVQWKVDNALQSGNSQESVTEQDSKDSTYSLSSTLTLSKADYEKHKVYACEVTHQGLSSPVTKSFNRGEC
notes: as for B2
In the case of B7, the “EC50 (read off the curve)” value [4] is reported as ~10 ng/mL.

B8: anti-CLDN4 (hKM3900)/anti-CD137 scFv bispecific antibody hKM3900_tA2-32_S (bispecific antibody)
heavy (part 1 of 2): EVQLVQSGAEVKKPGASVKISCKASGYTFTDYYMNWVRQAPGQGLEWMGDVVPNNGVPTYNQKFKGRVTITADKSTSTAYMELRSLRSEDTAVYYCARPHYYYAGRSGAMDYWGQGTLVTVSS
heavy (part 2 of 2): QVQLQESGPGLVKPSETLSLTCTVSGGSISGYYWSWIRQPPGKCLEWIGYIYYSGFTNYNPSLKSRVTISVDTSKNQFSLKLSSVTAADTAVYYCTRDHSHYYYMDVWGQGTTVTVSSGGGGSGGGGSGGGGSQSVLTQPPSASGTPGQRVTISCSGSSSNIGSNTVNWYQQFPGTAPKLLIYSNNQRPSGVPDRFSGSKSGTSASLAISGLQSEDEADYYCAGWDDSLNGPVFGCGTKLTVLG
light: DIQLTQSPSSLSASVGDRVTITCTASSTVSSTYLHWYQQKPGKAPKLLIYSTSNLASGVPSRFSGSGSGTDYTLTISSLQPEDFATYYCHQYHRSPPTFGQGTKLEIKRTVAAPSVFIFPPSDEQLKSGTASVVCLLNNFYPREAKVQWKVDNALQSGNSQESVTEQDSKDSTYSLSSTLTLSKADYEKHKVYACEVTHQGLSSPVTKSFNRGEC
notes: as for B2
In the case of B8, the “EC50 (read off the curve)” value [3] is reported as ~10 ng/mL.

B9: anti-CLDN4 (hKM3900)/anti-CD137 scFv bispecific antibody hKM3900_tA2-48 (bispecific antibody)
heavy (part 1 of 2): EVQLVQSGAEVKKPGASVKISCKASGYTFTDYYMNWVRQAPGQGLEWMGDVVPNNGVPTYNQKFKGRVTITADKSTSTAYMELRSLRSEDTAVYYCARPHYYYAGRSGAMDYWGQGTLVTVSS
heavy (part 2 of 2): QVQLQESGPGLVKPSETLSLTCTVSGGSISSYYWSWIRQPPGKCLEWIGYIYYSGYTNYNPSLKSRVNISVDTSQNQFSLKLNSLTAADTAVYYCARTHSYYYGMDVWGQGTTVTVSSGGGGSGGGGSGGGGSQSVLTQPPSASGTPGQRVTISCSGSSSNIGNNPVNWYQQFPGTAPKLLIYSNNQRPSGVPDRFSGSKSGTSASLAISGLQSEDEADYYCEAWDDSLNGPVFGCGTKLTVLG
light: DIQLTQSPSSLSASVGDRVTITCTASSTVSSTYLHWYQQKPGKAPKLLIYSTSNLASGVPSRFSGSGSGTDYTLTISSLQPEDFATYYCHQYHRSPPTFGQGTKLEIKRTVAAPSVFIFPPSDEQLKSGTASVVCLLNNFYPREAKVQWKVDNALQSGNSQESVTEQDSKDSTYSLSSTLTLSKADYEKHKVYACEVTHQGLSSPVTKSFNRGEC
notes: as for B2
For B9, the “EC50 (read off the curve)” value [4] was ~10 ng/mL.

B10: anti-CD137 antibody A2-48 (antibody, V domains shown)
VH: QVQLQESGPGLVKPSETLSLTCTVSGGSISSYYWSWIRQPPGKGLEWIGYIYYSGYTNYNPSLKSRVNISVDTSQNQFSLKLNSLTAADTAVYYCARTHSYYYGMDVWGQGTTVTVSS
VL: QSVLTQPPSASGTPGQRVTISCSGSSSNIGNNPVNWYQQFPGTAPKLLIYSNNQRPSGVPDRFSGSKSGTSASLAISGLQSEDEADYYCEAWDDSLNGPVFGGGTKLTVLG
notes: as for B1
B10: binds [1]; binds [2].

B11: anti-CD137 antibody 3-34 (antibody, V domains shown)
VH: QVQLQQSEAELVRPGASVKISCKAFGYTFTNHHINWVKQRPGQGLDWIGYINPYNDYTTFNRKFKDKATLTVHKSSSTAYMELSGLTSDDSAVYYCARTWGHWYFDLWGRGTVVTVSS
VL: EIVMTQSPATLSVSPGERATLSCRASQSVSSNLAWYQQKPGQAPRLLIYDSSTRATGIPARFSGSGSGTDFTLTISSLQSEDFAVYYCQQYNNWPPWTFGQGTKVEIKR
notes: Purified from a hybridoma derived from a VelocImmune mouse (human variable, mouse constant regions)
B11: binds [1]; binds [2].
